The values that follow come from US20090202499A1 (University of California, published 2009).

As usually defined, the IC50 is the point on the concentration scale where inhibition reaches its midpoint.

The target of one test is T1, purified HLA-B*5401 (human).
T1 construct: Purified MHC class I molecule incubated with human b2m; also called B*54011
The test is described as follows: competition radioimmunoassay on purified HLA, radiolabeled standard peptide.

Test [1] addresses T2, purified HLA-B*0702 (human).
T2 construct: Purified MHC class I molecule incubated with human b2m; complexes captured with W6/32 antibody; also called HLA-B7; immobilized purified HLA-B7 molecule
The test is described as follows: competition solid-phase radioimmunoassay on purified HLA-B7, radiolabeled standard peptide. The text has this:
Next, we assessed the actual binding avidity for HLA-B7 (HLA-B*0702). Two independent assays were used: binding stabilization assay on T2-B7 cells by flow cytometry (12) and a competitive solid-phase radioimmunoassay on immobilized purified HLA-B7 molecule (35).

A further test concerns the target T3, purified HLA-B*0801 (human).
T3 construct: Purified MHC class I molecule incubated with human b2m; not officially part of the HLA-B7 supertype
As to the kind of experiment: competition radioimmunoassay on purified HLA, radiolabeled standard peptide.

The next test addresses T4, purified HLA-B*5301 (human).
T4 construct: Purified MHC class I molecule incubated with human b2m
The test is described as above.

In test [2] the target is T2, purified HLA-B*0702. The description is as above.
Text: (§1) Supertype analysis. […] Under the conditions utilized, where [label]<[MHC] and IC₅₀≧[MHC], the measured IC₅₀ values are reasonable approximations of the true Kd values.
The target of another test is T5, purified HLA-B*5101 (human).
T5 construct: Purified MHC class I molecule incubated with human b2m
Described as above.

In the next test the target is T6, purified HLA-B*3501 (human).
T6 construct: Purified MHC class I molecule incubated with human b2m
Described as above.

Text for purified HLA-B*0801: as §1
Text for purified HLA-B*3501: as §1
Text for purified HLA-B*5101: as §1
Text for purified HLA-B*5301: as §1
Text for purified HLA-B*5401: as §1

B1: hTRT peptide p966 (AGRNMRRKL) (peptide)
peptide: AGRNMRRKL
notes: Synthetic 9mer peptide of human telomerase reverse transcriptase
In the test with purified HLA-B*5401, B1 returned an IC50 of 34100 nM.

B2: hTRT peptide p1107 (LPGTTLTAL) (peptide)
peptide: LPGTTLTAL
notes: as for B1
Turning to B2, the concentration for half-maximal inhibition (IC50) was 0.96 nM in the test with purified HLA-B*0702 [1], 192 nM in the test with purified HLA-B*0801, 120 nM with purified HLA-B*5301 and 0.96 nM in the test with purified HLA-B*0702 [2].

B3: hTRT peptide p464 (FVRACLRRL) (peptide)
peptide: FVRACLRRL
notes: as for B1
Turning to B3, the half-inhibitory concentration (IC50) turned out to be 4.1 nM with purified HLA-B*0702 [1], 123 nM with purified HLA-B*0801, 18800 nM with purified HLA-B*5401 and 4.1 nM in the test with purified HLA-B*0702 [2].

B4: hTRT peptide p342 (RPSFLLSSL) (peptide)
peptide: RPSFLLSSL
notes: as for B1
B4 gave an IC50 with purified HLA-B*5401 of 12600 nM.

B5: hTRT peptide p1123 (LPSDFKTIL) (peptide)
peptide: LPSDFKTIL
notes: as for B1
Take B5: the IC50 in the test with purified HLA-B*0702 [1] was 11 nM; with purified HLA-B*5101, 1620 nM; in the test with purified HLA-B*3501, 5 nM; in the test with purified HLA-B*0801, 74 nM; with purified HLA-B*5401, 19900 nM; in the test with purified HLA-B*5301 it was 2.4 nM. Moreover, the 50% inhibitory concentration (IC50) in the test with purified HLA-B*0702 [2] amounted to 11 nM.

B6: hTRT peptide p444 (DPRRLVQLL) (peptide)
peptide: DPRRLVQLL
notes: as for B1
In the test with purified HLA-B*5401, B6 came in with an IC50 of 21900 nM.
